Reference: the supplement of paper PMC9732359
± gives the uncertainty stated by the source.

Assay: protein stability index of a GFP-peptide fusion (yeast GPS) (PSI 1-4); higher = more stable; sorted into four equal gates, so the index is relative within each strain
Procedure, shortened: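 The protein stability index combines read frequencies across sorting gates, each weighted by its gate number and then summed. To obtain those frequencies, a pooled yeast library of GFP fusions to tiled 17-residue yeast protein peptides, on a plasmid also expressing Cherry, was grown to mid-log phase in leucine-free medium. The cells were sorted into four equal gates by GFP/Cherry ratio before plasmid amplification by PCR and Illumina sequencing.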

Sequence	protein stability index (doa10∆)	protein stability index (pdr5∆)	protein stability index (san1∆)	protein stability index (ubr1∆)
NIIQAKRDAKAAGSYYV [RPL7A]	3.39 ± 0.11	3.24 ± 0.082	3.11 ± 0.057	2.64 ± 0.087
IALILAIQMVDPASFYL [SMC3]	1.16 ± 0.05	1.25 ± 0.055	2.1 ± 0.12	1.98 ± 0.063
PLSTYNKNGNAVCSTAT [PGD1]	2.37 ± 0.096	2.63 ± 0.075	2.37 ± 0.078	2.72 ± 0.088
PKIDEDDTWYNLTEFVQ [AAR2]	3.17 ± 0.088	3.23 ± 0.086	3.07 ± 0.049	3.07 ± 0.057
SRTDAVRCKDCGHRILL [RPC10]	2.62 ± 0.16	3.31 ± 0.19	2.66 ± 0.13	3.02 ± 0.078
GTQMTLKTFHFAGVASM [RPO31]	1.63 ± 0.11	1.85 ± 0.088	1.68 ± 0.13	2.1 ± 0.12
ILAAAHRDAYSGGSVNL [PRE2]	2.86 ± 0.078	3.2 ± 0.092	2.79 ± 0.062	2.89 ± 0.045
SLVEVVFYRGMTMQVAV [FAS1]	1.32 ± 0.06	1.88 ± 0.059	1.4 ± 0.11	1.99 ± 0.12
FNQRDGEHEKSNILLNS [MED1]	2.4 ± 0.087	1.96 ± 0.11	2.99 ± 0.17	3.21 ± 0.11
PFLHLRKKTPAGDWKYD [FAS2]	3.2 ± 0.29	3.32 ± 0.2	2.54 ± 0.24	3.08 ± 0.21
KTSKRTKRWYKNAGLGF [RPS11A]	3.3 ± 0.091	2.84 ± 0.12	3.17 ± 0.11	3.4 ± 0.085
YFKLSITSFDQDVDDAH [POP8]	1.78 ± 0.05	1.95 ± 0.075	1.78 ± 0.095	2.25 ± 0.055
PIGRDGKLAKPRQLHNT [RPB2]	2.89 ± 0.077	2.88 ± 0.068	2.67 ± 0.059	2.84 ± 0.081
VDVKPKSPKERELEERA [RPC25]		3.07 ± 0.17		3.31 ± 0.13
PVSVSRIARALKQEGAA [RPL18A]	3.36 ± 0.22	2.83 ± 0.11	2.96 ± 0.12	3.3 ± 0.057
NLVKEKEALQNNIFKEF [SMC1]	3.51 ± 0.12	3.06 ± 0.12	2.99 ± 0.12	
KKAKLVLIANDVDPIEL [RPL8A]	3.17 ± 0.15	2.81 ± 0.068	3.09 ± 0.07	2.83 ± 0.072
PLPAVFSAPIRPDIVHT [RPL4A]	1.96 ± 0.04	2.35 ± 0.04	2.08 ± 0.06	2.13 ± 0.041
GAGIQIIMQADLALKMG [FAS2]	1.84 ± 0.094	2.09 ± 0.065	1.73 ± 0.071	2.03 ± 0.051
KNMPVIYNNIVSNIEGI [RGR1]	2.43 ± 0.055	2.69 ± 0.066	2.5 ± 0.05	2.56 ± 0.041
PVRALIVQAKEPNLAAQ [ECM29]	2.14 ± 0.11	2.6 ± 0.08	2.51 ± 0.092	2.64 ± 0.059
LPLLYNFNPDNGFAPIS [FAS1]	2.03 ± 0.12	2.63 ± 0.054	2.47 ± 0.093	2.72 ± 0.068
QQREAVRQLYKGKKYQP [RPL35A]	3.63 ± 0.29	3.42 ± 0.14	2.94 ± 0.14	2.83 ± 0.091
MGQGLCNNINKGLKEND [BRR2]	3.13 ± 0.095	3.57 ± 0.15	3.2 ± 0.071	3.39 ± 0.1
ERQMNFLTNELIRLQME [SWI3]	3.07 ± 0.11	3.12 ± 0.072	3.22 ± 0.048	3.09 ± 0.069
TIFGGVDKNGAHLYMLE [PRE10]	2.88 ± 0.076	2.66 ± 0.071	2.87 ± 0.086	3.29 ± 0.075
YFWHKIWRKVPGDVLDK [SNU114]	1.15 ± 0.095	1.08 ± 0.064	1.51 ± 0.23	1.22 ± 0.094

Sequence	protein stability index (doa10∆)	protein stability index (pdr5∆)	protein stability index (san1∆)	protein stability index (ubr1∆)
HPTTIESLREIPYGPDF [SEC65]	3.06 ± 0.069	3.17 ± 0.06	3.01 ± 0.058	2.99 ± 0.049
FEDSMQFKKLTHAQRTG [PRP8]	2.81 ± 0.086	3.11 ± 0.083	3.07 ± 0.087	2.99 ± 0.085
EFFSTNWLSIFNDFSNI [REC8]	2.83 ± 0.075	2.91 ± 0.067	2.09 ± 0.098	2.83 ± 0.08
GLSMLAKLKELAEDVDD [RPC31]	2.92 ± 0.079	3.31 ± 0.061	2.87 ± 0.078	2.95 ± 0.047
FYVPQARNVTFDSLRNF [GRR1]	2.04 ± 0.08	2.27 ± 0.075	2.52 ± 0.08	2.22 ± 0.059
PSSLNSDKIPYVAPTKK [SRB4]	2.24 ± 0.073	2.59 ± 0.1	2.15 ± 0.086	2.09 ± 0.063
TMLENITLRGVENIERV [RPO21]	3.23 ± 0.12	2.86 ± 0.1	2.82 ± 0.12	2.69 ± 0.058
WLVVPTIYNLQHHVTDA [YML031W/NDC1]	1.38 ± 0.03	1.62 ± 0.033	1.46 ± 0.05	1.37 ± 0.027
SLPHFPKNSKTPQSKGF [RPO31]	2.94 ± 0.23	3.08 ± 0.22	2.67 ± 0.18	2.98 ± 0.21
LDGKFSLFHTAVSVANG [RPN2]	2.09 ± 0.056	2.03 ± 0.057	2.45 ± 0.077	2.37 ± 0.06
DKSLDSSNASFNNQGKL [MED1]	2.98 ± 0.045	3.07 ± 0.043	2.68 ± 0.035	2.99 ± 0.045
HRCAIRSGALIKFKKCD [SSN2]	2.28 ± 0.096	2.26 ± 0.1	2.77 ± 0.054	2.49 ± 0.11
IDNLKDTLKENATEVQK [ITC1]	2.66 ± 0.05	2.87 ± 0.068	2.92 ± 0.05	2.88 ± 0.05
IGLDTQQVEGKLSQMIL [RPN6]	2.95 ± 0.066	3.05 ± 0.069	3.04 ± 0.071	3.06 ± 0.056
DAKKARFWSFMKTQRFV [SIR4]	2.6 ± 0.096	2.88 ± 0.069	2.67 ± 0.069	2.75 ± 0.066
NQSAYEWNGKSFQKKSN [ISW2]	3.16 ± 0.11	3.12 ± 0.17	3.09 ± 0.064	2.99 ± 0.13
PLFFVDLKLLFNTEAEQ [RGR1]	2.73 ± 0.077	2.83 ± 0.063	3.19 ± 0.085	3.14 ± 0.057
DVKKPFSFGTSQPNNTP [YLR335W/NUP2]	2.61 ± 0.096	2.34 ± 0.083	2.5 ± 0.12	2.15 ± 0.064
DGSAIEDDDIRSRMLPT [SNF5]	3.19 ± 0.086	3.03 ± 0.11	3.46 ± 0.12	3.34 ± 0.057
KKWPQFYAAVQKNYADP [SIN4]	1.5 ± 0.07	2.09 ± 0.084	2.77 ± 0.13	2.18 ± 0.075
VRNKSYPVYTRLRTLCR [DIS3]	2.65 ± 0.08	2.83 ± 0.072	3.06 ± 0.11	2.46 ± 0.051
SSNASFNNQGKLDLFKY [MED1]	2.93 ± 0.039	3.03 ± 0.038	2.71 ± 0.032	3.04 ± 0.041
PLKFKLGPLSYQNMAFI [YJR042W/NUP85]	2.42 ± 0.064	2.55 ± 0.06	2.58 ± 0.062	2.6 ± 0.049
DENKDDELVKLLLDNGF [SRP68]	3.05 ± 0.11	3.4 ± 0.086	3.36 ± 0.12	3.31 ± 0.094
TPNMVNSEISNLPKDKS [SSN2]	2.74 ± 0.08	3.08 ± 0.17	2.69 ± 0.087	2.9 ± 0.066
TQLQRGGTSDMNYLLDN [CSI1]	2.89 ± 0.097	2.82 ± 0.14	3.2 ± 0.078	3.02 ± 0.078
VQRTMLELLNQLDGFSS [RPT5]	2.99 ± 0.078	2.88 ± 0.072	2.83 ± 0.063	2.99 ± 0.05
